Experimental data: the nanobody polyreactivity screen of Harvey et al. (2022)

Experiment: yeast display, Sf9 membrane polyspecificity reagent, FACS + sequencing; frameworks hold sequencing errors
Procedure, shortened: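 Galactose-induced (36–48 hours) yeast carrying a synthetic nanobody display library were exposed to 10% biotinylated, detergent-solubilized Sf9 membrane reagent at 4 °C for 1 hour. FACS followed streptavidin microbead enrichment, using low and high (top ~1%) gates for expression (anti-HA) and reagent binding (streptavidin). Colony PCR, MiSeq 2 × 250 sequencing and CDR-length filtering followed. Labels for polyreactivity reflect the gate of origin.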

Sequence	polyreactivity (PSR sort gate)
QVQLVESGGGLVQAGGSLRLSCAASGFIFYAYAMGWYRQAPGKERELVPAISRRGGSTYYADSVKGRFTISRDNAKNTVYLQMNSLKPEDTAVYYCARDWTLGRSGPKYGYWGQGTQVTVSS	high polyreactivity
QVQLVESGGGLVQAGGSLRLSCAASGTIPGYAMGWYRQAPGKETELVAAITWSDDSTFYADSVKGRFTISRDNAKNTVYLQMNSLKPEDTAVYYCAAEYVVSTQEFDYWGQGTQVTVSS	low polyreactivity
QGQHVESGGGLVQAGGSLRLSCAASGFTFAHNAMGWDRQAPGKETDFVAAITSRGGSTYYADSVKGRFTISRDNAKNSVYFQMYSPNPEDTAVYYCAADDYIYTVYSYTYQYWGQGTHVTVSS	low polyreactivity
QVQLVESGGALGQAGGSLRLTSAASGITFPRYAIGWYRHAPGKEREMVATITRSGGGTYYADSVKGRFKISRDNAKNTVYLQMNSLKPEDTSVFYCAAGALQRGVYGYGFWGQGTQVTVSS	high polyreactivity
QVQLVESWGGLVQAGGSLRLSCAASGSIFDYNAMGWYRQAPGKERELVAAISSGGSTNYADSVKGRFTISRDNAKNTVYLQMNSLKPEDTAVYYCNTGLYWLGYWPDDYWGQGTQVTVSS	low polyreactivity
QVQLVESGGGLVQAGGSLRLSCAASGSTFNHYAMGWYRQAPGKDRELVAAITKSGGSTYADSVKGRFTISRDNAKNSVYLQMNSLKPEDTAVYFCAAGRRKYGTKGRGDYWGQGTQVTVSS	low polyreactivity
QVQLVESGGGLVQAGGSLRLSCAASGSIFVTYAMGWYRQAPGKERELVAAISTSGGSTYADSVKGRFTISRDNAKNTVYLQMNSLKPEDTAVYYCNADDPGYAVPWYWFKSDYWGQGTQVTVSS	low polyreactivity
QVQLVESGGGLVQAGGSLRLSCAASGFIFRQNAMGWSRQAPGKDRELVAAISNAGITNYADSVKGRFTISRDNAKITVYLQMNSLKPEDTAVYYCAAVEFRDSTFVVVSSPTSKSDYWGQGTQVTVSS	low polyreactivity
QVQLVESGGGLVQAGGRLRLSCAASGSIFRLYAMGWYRQAPGKEREFVAGITRRTGSTYYADSVKGRFTISRDNAKNTVNLQMNSLKPEDTAVYYCAKRDARATPFGYWGQGTQVTVSS	high polyreactivity
QVQLEESGGGLVQAGGSLRLSCAASGRIFDVNAMGWYRQAPGKERELVPRITSDGGTYYADSVKGRFTISRDNAKNTVYLQMNSLKPEDTAVYYCNAPYWFSPGYGGFEFGYDYWGQGTQVTVSS	low polyreactivity
QVQLVESGGGLVQAGGSLRLSCAASGRTFYSYAMGWYRQAPGKERELVAGITWSGTSTYYADSVKGRFTISRDNAKNTVYLQMNSLKPEDTAVYYCAAATLYSRYDYWGQGSQVTVSS	low polyreactivity
QVQLVESGGGLVQAGGSLRLSCAADGFTFYVYAMGWYRQAPGKERELVADISRRGGSTYYADYVKGRFTISRDNEKNHVYLQMNSLKPEDTAVYYCAAQYYGGGTYWYRYGYWGQGTQVTLSS	high polyreactivity
QVQLVESGGGLVQAGGSLRLSCAASGFIFKQYAMGWYRQAPGKERELVAAISWTGGSTYYADSVKGRFTISRDNAKNTVYLQMNSLKPEDTAVYYCAAKRRTRQSYYTEYYWGQGTQVTVSS	high polyreactivity
QVQLVESGGGLVQAGGSLRLSCAAYGLTFLSNAMGWYRPAPGKEREFVAAITKSGGRTYYADSVKGRFTISRDNAKNTVYFQMNSLKPEDTSVYYCAASGTSPRSTWYNSWGQGTQVTVSS	high polyreactivity
QVQLVESGGGLVQAGGSLRLSCAASGIIFYKYAMGWYRQAPGKERELVAVISSGGSTYYADSVKGRFTISRDNAKNTVYLQMNSLKPEYNAVYYCNADCYRRGYDYWGKGTQVTVSS	high polyreactivity
QVQLVESGGGLVQAGGSLRLSCAASGSIFIGYAMGWYRQAPGKERELVAAISWSGDSTYYADSVKGRFTISRDNAKNTVYLQMNSLKPEDTAVYYCARDKWGLRYAPTVDYWGQGTQVTVSS	high polyreactivity
QVQLVESGGGLVQAGGSLRLSCAASGLIFYYNAMGWYRQAPGKERELVATIRGSGSSTYYADSVKGRFTISRDNAKNTVYLQMNSLKPEDTAVYYCAAKGYRCFRHGGYYFKFDYWGQGTQVTVSS	high polyreactivity
QVQLVESGGGLVQAGGSLRLSCAASGSIFRNYAMGRSRQAPGKERELVAAITSGVRTNYADSVKGRFTISRDNAKNTVYLQMNSLKPEDTAVYYCNKGYNAVWRYRGDYWGQGTHVTVSS	high polyreactivity
QVQLVESGGGLVQAGGSLRLSCAACGRTFWSYAMGWYLQAPGKERELVAAINSGGSTDYADSVKGRFTISRDNAKNTVYLQMNSLKPEDTAVYYCAADTWYGFDWGQGTQVTVSS	high polyreactivity
QVQLVESGGGLVQAGGSLRLSCAASGSIFVRNAMGWYRQAPGKEREFVATITSSGGTTYYADSVKGRFTISRDNAKNTVYLQMNSLKPDDTAVYYCNADAGWYDWVYYVGRDYWGQGTQVTVSS	low polyreactivity
QVQLVESGGGLVQAGGSLRLSCAASGRIFYPYAMGWYRQAPGKERELVAAITSGGRTNYADSVKGRFTISRDNAKNTVYLQMNSLKPEDTAVYYCAATRFRHGKRMDYWGQGTQVTVSS	high polyreactivity
QVQLVESGGGLVQAGGSLRLSCAASGLISSINAMGWYRQAPGKERELVATITSGGSTYYADSVKGRFTISRDNAKNTVYLQMNSLKPEDTAVYYCAARSSVRAYYSWGHGTQVTVSS	high polyreactivity

Sequence	polyreactivity (PSR sort gate)
QVQLVESGGGLVQAGGSLPLSCAASGRIFNSNAMGWYRQAPGKERELVAAIPISGSTNYADSVKGRFTISRDNAKNTVYFQMNSLKPEDTAVYYCAAQRTSHGRGVNGYVKYGYWGQGTIVTVSS	high polyreactivity
QVQLVESGGGLVQAGGSLRLICAASGSIFLHYGMGWYRQAPGKERELVAAISWRCRSTYYADSVKGRFTISRDNAKNTVYLQMNSLKPEDTAVYYCNAEYAFPLSGSGYWGQGTQVTVSS	low polyreactivity
QVQLVESGGGLVQAGGSLRLSCAASGGIFAPYAMGWYRQAPGKERELVATISFSGGSTYYADSVKGRFTISRDNAKNTVYLQMNSLKPEDTAVYYCAKRYIYSLLYGLDYWGQGTQVTVSS	low polyreactivity
QVQLVESGGGLVQAGGSLRISCAASGGIFFQNAMGWYRQAPGKERELVAAISWSAGSTYYADSVKGRFTISRDNAKNSVDLQMNRQKPEDTAVDSCAGRVGCGRAIDLYYYWGQGTQVTVSS	low polyreactivity
QVQLVESGGGLVQAGGSLRLSCAASGSTFRIYAMGLYRQAPGKERELVAAIRRSGGSTYYADSVKGRFTISRDNAKNTVYLQMNSLKPEDTAVYYCAADLYYQAPGYQDRYRHSRYEYWGQGTQVTVSS	high polyreactivity
QFQLVESGGGLVQAGGSLRLSCAASGSTFQWYAMGWYRQAPGKERELVAAINKSGGTTYYADSVKGRFTISRDNAKNTVYLQMNSLKPEDTAVYYCATDNPVVYQPGNMDYWGQGTQVTVSS	low polyreactivity
QVQLVESGGGLVQAGGSIRLSCAASGRTFYPNAMGWYRQAPGKERELVAVISSGGNTDYADSVKGRFTISRDNAKNTVYLQMYSLKPEDTAVYYCNTDTTVVSHYRSYWWGAGYDYWGQGTQVTVSS	low polyreactivity
QVQLVESGGGLVQAGGSLRLSCAASGMICGVYAMGWYRQAPGKERELVAAIDGNGSSTYYADSVKGRFTISRDNAKNTVYLQMNSLKPEDTAVYYCAAGYWSYLYYWYDFDYWGQGTQVTVSS	low polyreactivity
QVQLVESGGGLVQAGGSLRLSCAASGRIFKSYAMGWDRQAPGKERELVAAISRSGGRTYYADSVKGRFTISRDNAKNTVYLQMNSLKPEDTAVYYCAATTIVAPYWGQGTQVTVSS	low polyreactivity
QVQLVESGGGLVQAGGSLRLSCAASGSTFSSYGMGWYRQAPGKERELVAAISKRGGSTYYADSVKGRFTISRDNAKNTVYLQMNSLKPEDTAVYYCAARYRLYYYFRFDWGQGTHVTVSS	high polyreactivity
QVHLVESGGVLVQAGGSLRLSCAASGFILYFNAMGWYIQAPGKERELVAVNTFRSGSTYYADSVKGRFTISRDNAKNTVNLQMNSLKPEDTAVYYCNAQSVLLSLRVELREPHEYWGHGTQVTVSS	low polyreactivity
QVQLVESGGGLVQAGGSLRLSCAASGGIFYLYAMGWYRQAPGKEREFVAAISSSGGSTNYADSVKGRFTISRDNAKNTVYLQMNSLKPEDTAVYYCAARWLPFLDLGKTYEYWGQGTQVTVSS	high polyreactivity
QVQLVESGGGLVQAGGSLRLSCAASGRIFGGNALGWYRQAPGYARALVAAISWIGGTTYYADSVKGRFTISRDNAKNTVYLQMNSLKPEDTAVYYCAAYRYRPHVHRYYRYDYWGQGTQVTVSS	high polyreactivity
QVQLVESGGGLVQAGGSLRLSCAATGSTFLRNAIGWYRQAPGTERELVATITNGGSTYYADSVKGRFTISRDNAKNTVYLQMNSLKPEDTAVYYCATLSSYWSWLRYGYGYWGQGTQVTVSS	low polyreactivity
QVQLVESGGGLLQAGGSLPLSCAASGFTFVPYAMGLYIQAPGKERELDAAISSRGDSTYYADSVKGRFTISRDNAKNTVYLQMIRLSPEDTAFYYCIARTTPHMDYWGQGTQVTVSS	low polyreactivity
QVQLVESGGGLVQAGGSLRLSCAASGSTFGYYAMGWYRPAPGKERELVAAINVSGGRTYYADSVKGRFTISRDNAKNTVYLQMNSLKPEDTAVYYCAAQRPEYRAGRYNYWGQGTQVTVSS	high polyreactivity
QVQLVESGGGLVQAGGSLRLSCAASGRIFQQYALGWYRQAPGKEREWVAVITYRAGRTHYADSVKGRFTISRDNAKNTVYLQMNSLKPEDTAVYYCAAGRYYAVWQSISGFDSWGQGTQVTVSS	low polyreactivity
QVQLVESGGGLVQAGGSLRLSCAASGITFRYNAMGWYRQAPGKERELVAAITFSGGSTYYADSVKGRFTISRDNAKNTVNLQMNSLKPEDTAVYYCAKLGSTSSRGNYDYWGQGTQVTVSS	low polyreactivity
QVQLVESGGGLVQAGGSLRLSCAASGFTFIGYAMGWYRQAPGKERELVAAITWRGGRTYYADSVKGRFTISRDNAKNTVYLQMNSLKPEDTAVYYCAADGYTVVNSYYWGQGTQVTVSS	high polyreactivity
QVQLVESGGGLVQAGGSLRLSCAASGFIFATYAMGWYRQAPGKDRELVAAISRSGGSTYYADSVKGRFTISRDTAKNTVYSQMNCLKPEDTAVYYCAADSDPAPPDYDYWGQGTQVTVSS	high polyreactivity
QVQLVESGGGLVQAGGSLRLSCAASGSIDSKYTMGWYRQAPGKERELVAAIRGSGVRTYYADSVKGRFTISRDNAKNTVYLQMNSLKPEDTAVYYCAKVVYRGKVALWISSTAGSDYWGQGTQVTVSS	low polyreactivity
